Laboratory results reported in publication PMC4319893, “Targeting Protein-Protein Interactions with Trimeric Ligands: High Affinity Inhibitors of the MAGUK Protein Family” (PLoS ONE, 2015).

Key:
Assay in all cases: fluorescence polarisation; monomeric FP assay with monomeric fluorescent peptide probes (PSD-95 PDZ1-2, PDZ1-2-3 and single PDZ domains); 50 mM TRIS, 100 mM NaCl, 1 mM EDTA, 1 mM DTT
PSD-95 PDZ1 (human) = target: PSD-95 PDZ1 (human)
PSD-95 PDZ1-2 (human) = target: PSD-95 PDZ1-2 (human)
PSD-95 PDZ1-2-3 (human) = target: PSD-95 PDZ1-2-3 (human)
PSD-95 PDZ2 (human) = target: PSD-95 PDZ2 (human)

affinity (PSD-95 PDZ1 (human)): 97 µM | fold lower affinity than 17 (PSD-95 PDZ1-2 (human)): > 1000 fold | fold lower affinity than 17 (PSD-95 PDZ1-2-3 (human)): > 1000 fold | affinity (PSD-95 PDZ2 (human)): 25 µM
Substance: CRIPT hexapeptide YKQTSV (1)
